Test results taken from US20240307488A1, “ANNEXIN TO INHIBIT BACTERIA” (priority 2023, published 2024).

B1: bovine annexin A4 (protein, UniProt P13214 2-319, looked up)
Annexin A4: AAKGGTVKAASGFNAAEDAQTLRKAMKGLGTDEDAIINVLAYRSTAQRQEIRTAYKTTIGRDLMDDLKSELSGNFEQVILGMMTPTVLYDVQELRKAMKGAGTDEGCLIEILASRTPEEIRRINQTYQLQYGRSLEDDIRSDTSFMFQRVLVSLSAGGRDESNYLDDALMRQDAQDLYEAGEKKWGTDEVKFLTVLCSRNRNHLLHVFDEYKRIAQKDIEQSIKSETSGSFEDALLAIVKCMRNKSAYFAERLYKSMKGLGTDDDTLIRVMVSRAEIDMLDIRANFKRLYGKSLYSFIKGDTSGDYRKVLLILCGGDD

Legend:
E. coli strain BL21(DE3) = experiment: dark field light microscopy of antibiotic-driven bacterial filament formation and filament length measurement; type: cell-based
Source text: Use of dark field light microscopy to monitor antibiotic-driven bacterial filament formation.
In bright field light microscopy, the filaments formed by bacteria in the presence of beta-lactam antibiotics are difficult to distinguish from “floaters” in the eyes of the microscopist. […] The light micrographs provided herein were all obtained by darkfield light microscopy. […] Therefore, transmission electron microscopy was also used in some cases for visualization of cell ultrastructure.
Darkfield light microscopy of bacterial cultures was performed with a Nikon Labophot microscope (Nikon Instruments, Melville, New York) with a dark field condenser (dry) and an e plan40×/0.65 Nikon objective.
of the inducer IPTG (Isopropyl β-d-1-thiogalactopyranoside). However, protein expression from this plasmid can have significant baseline expression without the inducer. […] Accordingly, all of the imaging and experiments described in this report were performed without adding the inducer, which avoided these problems.
Five ml precultures in LB medium with 200 μg/ml ampicillin were seeded with colonies from LB-ampicillin agar plates and incubated on a rotator overnight at 34 degrees C. […] Slides were rested for 2 to 5 minutes to allow the cells to settle before observation. Nonetheless, the cells were not tightly adherent to the slides and occasionally some cells moved slightly during imaging resulting in a double image. Cultures were checked and micrographs taken at 5 to 20 min intervals for up to 4 hours. Occasionally during this period, the culture tubes were briefly inserted into a Genesys 20 spectrophotometer (Thermospectronic, Rochester, NY) and the absorbance at 600 nm was recorded to measure culture density. The culture tubes have a circular cross section with an inside diameter of 1.3 cm, so the absorbances recorded were approximately 30% higher than would have been measured in a square cuvette with a one cm pathlength.
For preparation of the micrographs in FIGS. 1 through 3 comparing the morphology of the different transformed strains, each test culture (5 ml) was inoculated at the same time with 50 ul of the saturated overnight preculture. For display in the Figures, photographs taken after approximately the same period of growth of each of the parallel cultures were obtained when 20 μl samples provided a microscope image containing a broad sampling of the cell morphologies seen without overcrowding.
The lengths of the bacterial filaments were measured using the Image J program (NIH) with the dark field light micrographs. […] The longest dimension of each cell or filament was taken to represent the “length” for the analysis. Forty to 90 filaments were measured from each of the sub-images in FIGS. 1 and 2.

[1] = tested on: bovine chromaffin granule (secretory vesicle) membrane; conditions: from Nelson and Creutz [17], Table 4; cited from earlier work
E. coli BL21(DE3) cells = experiment: electron microscopy of cells expressing wild type or mutant annexins A4; type: cell-based; conditions: 200 μg/ml ampicillin and 4 μg/ml piperacillin; FIG. 4
Source text: E. coli samples selected for ultrastructural analysis were processed for electron microscopy using technical support and instrumentation in the Advanced Microscopy Facility at the University of Virginia School of Medicine. The following reagents for electron microscopy were obtained from Electron Microscopy Sciences (Hatfield, PA): sodium cacodylate, propylene oxide, EPON, uranyl acetate, and lead citrate.
One ml samples of cell cultures were pelleted in a microcentrifuge and resuspended in 2.5% glutaraldehyde in 10 mM phosphate buffer (pH7.4) and held overnight at 4 degrees C. The cells were then washed in 0.1 M sodium cacodylate, 2 times, 10 minutes per wash. Then the samples were completely immersed in 1% osmium tetroxide (OsO4) in 0.1 M sodium cacodylate and incubated at room temperature for 1 hour. Following this incubation, the samples were rinsed in 0.1 M sodium cacodylate, 2 times, 10 minutes per wash. Next samples were dehydrated sequentially in 50%, 70%, 95%, 100% ethanol for at least 10 minutes each. Samples were then rinsed in 1:1 ethanol:propylene oxide and incubated for 10 min in the same mixture, then for 10 min in 100% propylene oxide. Following removal of the final propylene oxide, samples were incubated in a 1:1 propylene oxide:EPON mixture overnight, followed with 1:2 propylene oxide:EPON and 1:4 propylene oxide:EPON, 4 hours each. […]

[2] = E. coli expressing construct, grown in ampicillin (200 μg/ml), FIG. 1
[3] = ampicillin (200 μg/ml) plus piperacillin (4 μg/ml), FIG. 2

Molecule	propensity to promote the formation of long, stable filaments (E. coli strain BL21(DE3); compared with ampicillin and piperacillin)	AVG μm: average length of the measured filaments (E. coli strain BL21(DE3); [2]) [μm]	MAX μm: length of the longest filament in the micrograph (E. coli strain BL21(DE3); [2]) [μm]	optical density (A600) of the cultures with or without the annexin (E. coli strain BL21(DE3); ampicillin (200 μg/ml))	promotion of cytokinesis (grouping of constructs) (E. coli strain BL21(DE3); ampicillin (200 μg/ml))	filament formation (E. coli strain BL21(DE3); ampicillin (200 μg/ml) plus cephalexin (25 μg/ml))	promotion of cytokinesis (grouping of constructs) (E. coli strain BL21(DE3); ampicillin (200 μg/ml) plus piperacillin (4 μg/ml))	AVG μm: average length of the measured filaments (E. coli strain BL21(DE3); [3]) [μm]	MAX μm: length of the longest filament in the micrograph (E. coli strain BL21(DE3); [3]) [μm]	stability of the filaments after tenfold dilution of cephalexin (E. coli strain BL21(DE3); cephalexin reduced from 25 to 2.5 μg/ml after 3 hours 20 minutes, observed for two hours)	concentration of calcium leading to half-maximal binding to a biological membrane [1]	relative abundance of short cells and filamentous forms in electron micrographs (E. coli BL21(DE3) cells)
CC1=C(C(=O)O)N2C(=O)[C@@H](NC(=O)[C@H](N)c3ccccc3)[C@H]2SC1 [cephalexin, reference compound]	greatest propensity to promote the formation of long, stable filaments											
B1		5.279	15.03	similar	promoted cytokinesis	long filamentous cells were formed	promoted cytokinesis	5.052	9.472	completely stable	5.0×10^−6 M	number of short cells exceeds the number of extended filamentous forms
